Results as given in patent publication US20260209318A1 (NATIONAL UNIVERSITY OF SINGAPORE, published 2026).
Numbering of substitutions follows the chain as printed. Numbers in names are those of the source.

B1: Ab14 (F9) (antibody, V domains shown)
VH: EVQLVESGGGLVQPGGSLRLSCATSGFTFDDFAMHWVRQGPGKGLEWVSGISWNSGKIAYTDSVKGRFSISRDNAKNSLYLQMNSLRPEDTALYYCTKDHAPSAILGDILTGFDPWGQGTLVT
VL: DIQMTQSPVSLSASVGDRVTITCRASQSISVYLNWYQQKPGKAPKLLMYAASILQSGVPSRFSGSGSATDFTLTITSLQPEDFATYFCQQSFTMPPTFGQGTNLEIK
B2: Ab4 (G7.2) (antibody, V domains shown)
VH: QVQLVQSGAEVKKPGSSVKVSCEASGGTFSTYAISWVRQAPGQGLEWMGRIIPIFGIANYAQKFQGRVTITADKSTSTAYMEVSSLRSEDTAVYYCATTFYDHSSTYRTHSMDVWGQGTTVTVSS
VL: DIQMTQSPSSLSASVGDRVTITCRASQSISNYLNWYQQRPGKAPKLLIYAASGLQSGVPSRFSGSGSGTNFTLTISTLHPEDFATYYCQQTHSTPRAFGGGTKVEIK
B3: Ab32 (10x-L8N-c12) (antibody, V domains shown)
VH: EVQLVESGGGLVQPGGSLRVTCVASGFAVRTNFMTWVRQAPGKGLQCVSVIYGDGSTYYADSVKGRFSISRDNSKNTVYLQMNSLSAEDTAVYYCAREVSHAFDLWGPGTMVTVSS
VL: DIQLTQSPSTLSASLGDRVTITCRASQSISGWLAWYQQKPGRAPQLLIYKASLLETGVPSRFSGSGSGTVFTLTISSLQPDDFATYYCQQYDTYSPYTFGQGTKLEIK
B4: Ab27 (E12.2) (antibody, V domains shown)
VH: EVQLVESGGGLVQPGGSLRLSCGASGITVSSNYMNWVRQAPGKGLEWVSTLYAGGSTFYADSVKGRFIISRDNSKNTLYLQMNSLRADDTAVYYCARDLVDYGMDVWGQGTTVTVSS
VL: DIQLTQSPSSLSASVGDRVTITCRASQGISSYLAWYQQKPGKAPKLLIYAASTLQSGVPSRFSGSGSGTDFTLTISSLQPEDFATYYCQQLNSYSPFTFGPGTKVDIK
B5: Ab7 (G1) (antibody, V domains shown)
VH: EVQLVESGGGLVKPGGSLRLSCAASGFTVSTYIINWVRQAPGKGLEWVSSITSESDYMFDADSVRGRFTISRDNAKNLVYLQMNSLRAEDTAVYYCARDQGAYSGYDLSPGGDAFDVWGQGTMVTVSS
VL: DIQMTQSPSTLSASVGDRVTITCRASQSISTWLAWYQQKPGKAPKLLIYKASNLESGVPSRFSGSGSGTEFTLTISRLQPDDSATYCCQHYNSYPYTFGQGTKVEIK
B6: Ab8 (B9) (antibody, V domains shown)
VH: EVQLVQSRAEVKKPGESLKISCKGSGYSFTTYWIGWVRQMPGKGLEWMGIIRPGDSDTRYSPSFQGQVTISADKSITTAYLQWSSLKASDTAMYYCAMTYSGDQYDFWGQGTVVTVSS
VL: B5 VL with S30H, K39T, N53L, R77S, D81G, S83F, C87Y, P95S, Y96H
B7: Ab35 (10x-L8N-c20) (antibody, V domains shown)
VH: QVQLQESGPGLVKPSETLSLTCTVSGDSIYSYSWTWIRQPPGKGLEWIGQLYYNGSTSYNASLKSRVSISLDTSKNQFSLKLRFVTAADTAMYYCARVEYYSNYFDPWGQGTQVTVSS
VL: EIVLTQSPATLSLSPGERATLSCRASQSVGSYLAWYQQKPGQAPRLLIYDASNRVPGIPARFSGSGSGTDFTLTISSLPPEDFAVYYCQQRSDWPPTFGGGTKVEIR
B8: Ab19 (F5.1) (antibody, V domains shown)
VH: EVQLVESGGGLVKPGGSLRLSCAASGFIFSRNGMHWVRQAPGKGLEWVSSIDNDGTYMYYADSVRGRFTVSRDNAKNSLFLQLNSLRAEDTAVYYCARDRFGYYDALTDSYNAGYFDSWGQGTLVTVSS
VL: DIQMTQSPSSLSASVGDSVTITCRASQDIYNYLAWFQQKPGKAPKSLIYTASKLESGVPSKFSGSGSGTDFTLTISSLQPEDFATYYCQQYHSSPITFGQGTRVEIK
B9: Ab39 (10x-L8N-c30) (antibody, V domains shown)
VH: QVQLVQSGAEVKKPGSSVKISCKASGDTSSSYTINWVRQAPGQGLEWMGRIIPMFNRANYARKFQGRVTMTADRSTDTAYMEVSSLTSDDTAVYYCARTWIEPHNWFDPWGQGTLVTVSS
VL: EIVLRQSPGTLSLSPGERATLSCRASQSVSGNHLAWYQRKPGQAPRLLIYAASSRATGIPDRFSGSGSGTDFTLTINRLEPEDFAVFYCQQYGTSPPTFGGGTKVEIK
B10: Ab12 (H5) (antibody, V domains shown)
VH: EVQLLESGGGLVQPGGSLRLSCAASGFTFSGSDMSWVRQAPGKGLEWVSVIGGSGTYAYYSDSVKGRFTISRDNSKNMLFLQMNSLRAEDTAIYYCAKETGFLWFGELLDSWGQGALVTVSS
VL: DIQMTQSPSSLSASVGDRVTITCRASEAISNSLAWYQQRPGKAPRLLLYAAATLESGVPPRFSGSGSGTDFTLTISTLQPEDFATYYCQQYYSPPPRTFGQGTKVEIK
B11: Ab3 (C2.2) (antibody, V domains shown)
VH: QVQLVQSGAEVKKPGSSVRVSCEASGDTFSRYAISWVRQAPGQGLEWMGRIIPMFGMANSAQKFQARVTISADKSTSTAYMEVSSLRSEDTAVYYCATDTFYPNDGVHRMEYWGQGALVIVSS
VL: DIQMTQSPSSLSASVGDRVTITCRASQTISNYLNWYQQKPGKAPNLLIYGTSILQSGVPSRFSGSGSGTDFTLTISSLQPEDFATYYCQQSHSAPRTFGPGTKVDIK
B12: Ab6 (K23) (antibody, V domains shown)
VH: EVQLVESGGGLVQPGGSLRLSCSASGFTFNNYVMHWVRQAPGKGLEYVSAINSNGGSTYYAGSVKGRFTISRDNSNNTLYLQMSSLRAEDTAVYYCIKDAGYYSSLGVDSWGQGTLVTVSS
VL: EIVLTQSPATLSLSPGERATLSCRASQSVGSYLAWFQQKPGQAPRLLIYDASYRATGIPARFSGSGSGTDFTLTISSLEPEDVGIYYCQQRSNWPQTFGGGTKVDIK
B13: Ab28 (10x-L8N-c1) (antibody, V domains shown)
VH: QFQLVQSGAEVKKPGSSVKVSCRASGGSFTSHAISWVRQAPGQGFEWMGRIIPMFGIANYAPKFQGRVTMSADKFKDIVYMEVNSLTSEDTALYYCARSQPMTSVTTLWFDPWGQGTLVTVSS
VL: EIVLTQSPGTLSLSPGERATLSCRASEPVGGSYLAWYQQKPGQAPRLLIHGASSRATGIPDRFSGSGSGTDFVLTISRLEPEDFAVYHCQQYASSPYTFGQGTKLEIK
B14: Ab40 (10x-L8N-c32) (antibody, V domains shown)
VH: QVQLQESGPRLVKPSETLSLTCTVSGGSISSYYWTWIRQPPGKGLEWIGYISYSGSTNYNPSLRSRVTMSVDTSKNQFSLDLNSVTAADTAVYYCATDGGGFYPGYFPHWGQGTLVTVSS
VL: DIQMTQSPSSLSASVGDRVTITCRASQSISDYVNWYQQKPGRAPRLLIYAPSTLQSGVPSRFSGSGSGTDFTLTISNLQPEDFGTYFCQQSYSTPPYTFGQGTKVEMK
B15: Ab22 (C9.1) (antibody, V domains shown)
VH: QVQLVQSGAEVKKPGSSVKVSCKASGGTFSSYGISWVRQAPGQGLEWMGRIIPSLSITNSAEKFQGRVTITADKSTSTAYMELSRLRSEDTALYYCARDFHPRYEFCDSTSCYDEWEPRMDVWGQGTTVTVSS
VL: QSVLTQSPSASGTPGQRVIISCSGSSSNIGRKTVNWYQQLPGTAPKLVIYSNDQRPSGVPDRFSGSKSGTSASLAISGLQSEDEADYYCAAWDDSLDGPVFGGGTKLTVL
B16: Ab25 (H10.2) (antibody, V domains shown)
VH: B15 VH with G26R, S31N, G33A, I70M, A79V, L93V, F106Y, D108S
VL: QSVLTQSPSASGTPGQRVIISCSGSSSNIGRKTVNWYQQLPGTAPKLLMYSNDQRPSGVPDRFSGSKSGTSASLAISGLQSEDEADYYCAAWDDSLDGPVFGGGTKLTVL
B17: Ab20 (C6.1) (antibody, V domains shown)
VH: EVQLVESGGGLVKPGGSLRLSCAASGFAFSTNGMNWVRQVPGKGLEWVSSISSTSEYTYYTESVKGRFTISRDNAKNSLFLQMNSLRAEDTAVYYCVRDRFGYYDVLASSYNVGFFQSWGQGALVTVSS
VL: DIQMTQSPSSLSASVGDGVTITCRASQDISNNLAWFQQKPGKAPKCLIYSASSLQSGVPLKFRGSGSGTDFTLSITSLDPEDFATYYCQQYISYPITFGQGTRLDIK
B18: Ab13 (D10) (antibody, V domains shown)
VH: EVQLVESGGGLVQPGRSLRLSCAASGFTFDEYAMHWVRQAPGKGLEWVSGISFNSGSVGYAGAAKGRFTISRDNAKKSLYLEMNSLRDEDTAFYYCAKDRGEHWLVRLFDSWGQGTLVTVSS
VL: DIQMTQSPSTLSASVGDRVTITCRPSQSIDRWLAWYQQKPGKAPTLLISAASSLETGVPSRFSGSGSGTEFTLTISSLQPDDFATYYCQQYNGYSMFGPGTKVEIK
B19: Ab21 (E6.1) (antibody, V domains shown)
VH: QVQLVQSGAEVKKPGSSVEVSCKASGGTFSSYAISWVRQAPGQGLEWMGRIIPSLGITNSAENFQGRVTITADKSTSTVYMELSSLRSEDTAVYYCARDFHPLYQSCSSTSCYDEWEPRMDVWGQGTTVTVSS
VL: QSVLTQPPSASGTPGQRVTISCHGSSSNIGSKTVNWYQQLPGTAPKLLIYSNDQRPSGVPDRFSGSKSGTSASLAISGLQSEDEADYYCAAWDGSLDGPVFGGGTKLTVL
B20: Ab9 (C68) (antibody, V domains shown)
VH: QVQLVQSGAEVKKPGASVKVSCKISGYTLTDFSIHWVRQAPGKGLEWMAGFDPEHRETIFAQKFQGRVAMTEATSTDTAYMELSSLRSDDTAVYYCATTGDFDSWRGYYLWGQGTLVTVSA
VL: DIQLTQSPSSVSASVGDSVTITCRASQGISRWLAWYQQKPGKAPRLLIYSASTLQSGVPSRFSGSGSGTDFTLTISSLQPDDFATYYCQHTNNFPFSFGPGTKVDIK
B21: Ab23 (B10.1) (antibody, V domains shown)
VH: QVQLVQSGAEVKKPGSAVKVSCKASGGTFSSYPITWVRQAPGQGLEWVGRAIPILGITSTAQKFQGRVTIIADKSTSTAYMELSRLRSEDTAVYYCARDFHPRYQDCDSTSCYDQWEPRMDVWGQGTTVTVSS
VL: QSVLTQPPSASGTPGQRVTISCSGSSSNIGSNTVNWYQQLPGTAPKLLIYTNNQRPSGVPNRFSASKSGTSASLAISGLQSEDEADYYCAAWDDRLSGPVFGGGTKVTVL
B22: Ab11 (D4) (antibody, V domains shown)
VH: QVQLQESGPRLVKPSGTLSLSCAVSGGPFSNTNWWSWIRQTPGKGLEWIGEINDSGNTVYNPALKSRVTMSVDKSKKQFSLNLHSLTAADTAVYFCARVWGHFDYWGQGVRVTVSS
VL: DIQMTQSPSSLYASVADRVTITCRASQGISNSLAWYQQQPGKAPQLLLYAASTLESGVPSRFSGSGSGTDFTLTISSLQPEDFATYYCQQYYSLRTFGGGTKVEIK
B23: Ab26 (G4.2) (antibody, V domains shown)
VH: QVQLVQSGAEVKKPGSSVKVSCKASGGTFSSHTVSWVRQAPGQGLEWMGRIIPPFGIVNYAQKFQGRVTMTADESTSTAYMELSSLRSEDTAVYYCARSNVVVVTEAGWFDPWGQGTLVTVSS
VL: DIQMTQSPSSVSASVGDRVSISCRASQDISSSLAWYQQKPGQAPKVLIYDASTLQSGVPSRFSGSGSGTDFTLTISNLRPDDFATYFCQQAHSFPFTFGPGTKVDIR

Each binder was assayed against BQ.1.1 spike protein (SARS-CoV-2 variant BQ.1.1, UniProt P0DTC2 14-1273) (assay: cell-based or functional assay).

Row | Binder | IC50 (pVNT) | concentration required to effectively neutralize (pVNT) | times less than the concentration of E7
1 | B1 | ≤ 550 ng/ml | – | –
2 | B2 | ≤ 300 ng/ml | 48.4 ng/ml | ~11 times
3 | B3 | ≤ 550 ng/ml | – | –
4 | B4 | ≤ 550 ng/ml | – | –
5 | B5 | ≤ 550 ng/ml | – | –
6 | B6 | ≤ 550 ng/ml | – | –
7 | B7 | ≤ 550 ng/ml | – | –
8 | B8 | ≤ 550 ng/ml | – | –
9 | B9 | ≤ 550 ng/ml | – | –
10 | B10 | ≤ 550 ng/ml | – | –
11 | B11 | ≤ 300 ng/ml | 271 ng/ml | ~2 times
12 | B12 | ≤ 550 ng/ml | – | –
13 | B13 | ≤ 550 ng/ml | – | –
14 | B14 | ≤ 550 ng/ml | – | –
15 | B15 | ≤ 550 ng/ml | – | –
16 | B16 | ≤ 550 ng/ml | – | –
17 | B17 | ≤ 550 ng/ml | – | –
18 | B18 | ≤ 550 ng/ml | – | –
19 | B19 | ≤ 550 ng/ml | – | –
20 | B20 | ≤ 550 ng/ml | – | –
21 | B21 | ≤ 550 ng/ml | – | –
22 | B22 | ≤ 550 ng/ml | – | –
23 | B23 | ≤ 550 ng/ml | – | –
